This note sets out measurements from patent publication US20240002497A1.

For experiment [1], the target named is muNav1.7α (murine Nav1.7α) (murine) (UniProt Q62205). In words: FACS, periplasmic extract, HEK Jmp-In cells; SD MFI 123. (In general: Flow cytometry measures light scatter and fluorescence of single cells or particles in a stream.)
Experiment [2] deals with rhNav1.7α + β1-β2-β3 (rhesus Nav1.7α co-expressed with Navβ1, Navβ2 and Navβ3) (rhesus monkey). In words: FACS, periplasmic extract, CHO Flp-In cells; SD MFI 10.
Experiment [3] has the same target. Put plainly: FACS, periplasmic extract, CHO Flp-In cells; SD MFI 13.
Experiment [4] deals with muNav1.7α (murine Nav1.7α) (murine) (UniProt Q62205). Put plainly: FACS, periplasmic extract, HEK Jmp-In cells; SD MFI 24.
Experiment [5] shares this target. Put plainly: FACS, periplasmic extract, HEK Jmp-In cells; SD MFI 61.
Experiment [6] concerns the target rhNav1.7α + β1-β2-β3 (rhesus Nav1.7α co-expressed with Navβ1, Navβ2 and Navβ3) (rhesus monkey). Put plainly: FACS, periplasmic extract, CHO Flp-In cells; SD MFI 20.
Experiment [7] shares this target. Put plainly: FACS, periplasmic extract, CHO Flp-In cells; SD MFI 16.
Experiment [8] shares this target. In words: FACS, periplasmic extract, CHO Flp-In cells; SD MFI 53.
The target is the same in experiment [9]. In words: FACS, periplasmic extract, CHO Flp-In cells; SD MFI 15.
For experiment [10] the target is unchanged. In words: FACS, periplasmic extract, CHO Flp-In cells; SD MFI 0.
In experiment [11] the target is muNav1.7α (murine Nav1.7α) (murine) (UniProt Q62205). Put plainly: FACS, periplasmic extract, HEK Jmp-In cells; SD MFI 5.
Experiment [12] addresses rhNav1.7α + β1-β2-β3 (rhesus Nav1.7α co-expressed with Navβ1, Navβ2 and Navβ3) (rhesus monkey). Put plainly: FACS, periplasmic extract, CHO Flp-In cells; SD MFI 4.
The target is the same in experiment [13]. In words: FACS, periplasmic extract, CHO Flp-In cells; SD MFI 34.
Experiment [14] has the same target. Put plainly: FACS, periplasmic extract, CHO Flp-In cells; SD MFI 18.
The target in experiment [15] is muNav1.7α (murine Nav1.7α) (murine) (UniProt Q62205). In words: FACS, periplasmic extract, HEK Jmp-In cells; SD MFI 175.
Experiment [16] addresses rhNav1.7α + β1-β2-β3 (rhesus Nav1.7α co-expressed with Navβ1, Navβ2 and Navβ3) (rhesus monkey). Put plainly: FACS, periplasmic extract, CHO Flp-In cells; SD MFI 22.
Experiment [17] deals with muNav1.7α (murine Nav1.7α) (murine) (UniProt Q62205). Put plainly: FACS, periplasmic extract, HEK Jmp-In cells; SD MFI 23.
The target of experiment [18] is rhNav1.7α + β1-β2-β3 (rhesus Nav1.7α co-expressed with Navβ1, Navβ2 and Navβ3) (rhesus monkey). In words: FACS, periplasmic extract, CHO Flp-In cells; SD MFI 33.
In experiment [19] the target is muNav1.7α (murine Nav1.7α) (murine) (UniProt Q62205). Put plainly: FACS, periplasmic extract, HEK Jmp-In cells; SD MFI 3361.
Experiment [20] deals with rhNav1.7α + β1-β2-β3 (rhesus Nav1.7α co-expressed with Navβ1, Navβ2 and Navβ3) (rhesus monkey). In words: FACS, periplasmic extract, CHO Flp-In cells; SD MFI 2.
For experiment [21] the target is unchanged. Put plainly: FACS, periplasmic extract, CHO Flp-In cells; SD MFI 49.
Experiment [22] addresses huNav157chim14-β1-β2-β3 (human). In words: binding FACS, HEK Flp-In.
Experiment [23] deals with huNav1.5-β1-β2-β3 (human) (UniProt Q14524). Put plainly: binding FACS, HEK Flp-In.
Experiment [24] has as its target rhNav1.7α + β1-β2-β3 (rhesus monkey). In words: FACS, CHO Flp-In, competitor 1 µM F010300703.
Experiment [25] addresses huNav1.5-β1-β2-β3 (human) (UniProt Q14524). Put plainly: FACS, CHO Flp-In, competitor 1 µM F010300703.
Experiment [26] has as its target huNav1.7α + β1-β2-β3 (human) (UniProt Q15858). Put plainly: binding FACS, CHO Flp-In, periplasmic extract.
The target of experiment [27] is huNav1.5-β1-β2-β3 (human) (UniProt Q14524). In words: binding FACS, CHO Flp-In, periplasmic extract.
For experiment [28], the target named is rhNav1.7α + β1-β2-β3 (rhesus monkey). Put plainly: FACS, CHO Flp-In, competitor 1 µM IRR00092.
The target of experiment [29] is huNav1.7α + β1-β2-β3 (human) (UniProt Q15858). In words: FACS, CHO Flp-In, competitor 1 µM IRR00092.
Experiment [30] has as its target huNav1.5-β1-β2-β3 (human) (UniProt Q14524). Put plainly: FACS, CHO Flp-In, competitor 1 µM IRR00092.

B1: F0103464B09 N99Q library variant (VHH, name in Kabat numbering)
VHH: EVQLVESGGGLVQPGGSLRLSCATTSRAFIRDVFTGWYRRVPGKERELVARIYNGGNTNYADFAKGRFSISRDNAKKMVTLRMSNLKPEDTGVYYCLFSGTIQTGREYRSGDYWGQGTLVTVSS
Consider B1, for which the Mean MFI in experiment [1] was 1490 MFI; in experiment [2], 546 MFI.

B2: F0103464B09 T100I library variant (VHH, name in Kabat numbering)
VHH: EVQLVESGGGLVQPGGSLRLSCATTSRAFIRDVFTGWYRRVPGKERELVARIYNGGNTNYADFAKGRFSISRDNAKKMVTLRMSNLKPEDTGVYYCLFSGTINIGREYRSGDYWGQGTLVTVSS
As for B2, the Mean MFI in experiment [3] came to 541 MFI; in [4] it was 1310 MFI.

B3: F0103464B09 N99Y library variant (VHH, name in Kabat numbering)
VHH: EVQLVESGGGLVQPGGSLRLSCATTSRAFIRDVFTGWYRRVPGKERELVARIYNGGNTNYADFAKGRFSISRDNAKKMVTLRMSNLKPEDTGVYYCLFSGTIYTGREYRSGDYWGQGTLVTVSS
On to B3, for which the Mean MFI came out at 936 MFI in experiment [5] and 490 MFI in [6].

B4: F0103464B09 T100Y library variant (VHH, name in Kabat numbering)
VHH: EVQLVESGGGLVQPGGSLRLSCATTSRAFIRDVFTGWYRRVPGKERELVARIYNGGNTNYADFAKGRFSISRDNAKKMVTLRMSNLKPEDTGVYYCLFSGTINYGREYRSGDYWGQGTLVTVSS
In the case of B4, in experiment [7], the Mean MFI stood at 526 MFI.

B5: F0103464B09 T100Q library variant (VHH, name in Kabat numbering)
VHH: EVQLVESGGGLVQPGGSLRLSCATTSRAFIRDVFTGWYRRVPGKERELVARIYNGGNTNYADFAKGRFSISRDNAKKMVTLRMSNLKPEDTGVYYCLFSGTINQGREYRSGDYWGQGTLVTVSS
Regarding B5, in experiment [8], the Mean MFI was 650 MFI.

B6: F0103464B09 T100K library variant (VHH, name in Kabat numbering)
VHH: EVQLVESGGGLVQPGGSLRLSCATTSRAFIRDVFTGWYRRVPGKERELVARIYNGGNTNYADFAKGRFSISRDNAKKMVTLRMSNLKPEDTGVYYCLFSGTINKGREYRSGDYWGQGTLVTVSS
For B6, in experiment [9], the Mean MFI came to 583 MFI.

B7: F0103464B09 N99R library variant (VHH, name in Kabat numbering)
VHH: EVQLVESGGGLVQPGGSLRLSCATTSRAFIRDVFTGWYRRVPGKERELVARIYNGGNTNYADFAKGRFSISRDNAKKMVTLRMSNLKPEDTGVYYCLFSGTIRTGREYRSGDYWGQGTLVTVSS
As to B7, the Mean MFI in experiment [10] turned out to be 572 MFI; in [11], 975 MFI.

B8: F0103464B09 T100H library variant (VHH, name in Kabat numbering)
VHH: EVQLVESGGGLVQPGGSLRLSCATTSRAFIRDVFTGWYRRVPGKERELVARIYNGGNTNYADFAKGRFSISRDNAKKMVTLRMSNLKPEDTGVYYCLFSGTINHGREYRSGDYWGQGTLVTVSS
Regarding B8, the Mean MFI in [12] was 689 MFI.

B9: F0103464B09 T100M library variant (VHH, name in Kabat numbering)
VHH: EVQLVESGGGLVQPGGSLRLSCATTSRAFIRDVFTGWYRRVPGKERELVARIYNGGNTNYADFAKGRFSISRDNAKKMVTLRMSNLKPEDTGVYYCLFSGTINMGREYRSGDYWGQGTLVTVSS
Regarding B9, in [13], the Mean MFI worked out at 585 MFI.

B10: F0103464B09 T100L library variant (VHH, name in Kabat numbering)
VHH: EVQLVESGGGLVQPGGSLRLSCATTSRAFIRDVFTGWYRRVPGKERELVARIYNGGNTNYADFAKGRFSISRDNAKKMVTLRMSNLKPEDTGVYYCLFSGTINLGREYRSGDYWGQGTLVTVSS
With B10, the Mean MFI in experiment [14] is 531 MFI; in experiment [15], 1250 MFI.

B11: F0103464B09 N99T library variant (VHH, name in Kabat numbering)
VHH: EVQLVESGGGLVQPGGSLRLSCATTSRAFIRDVFTGWYRRVPGKERELVARIYNGGNTNYADFAKGRFSISRDNAKKMVTLRMSNLKPEDTGVYYCLFSGTITTGREYRSGDYWGQGTLVTVSS
Consider B11, for which the Mean MFI in [16] came to 839 MFI.

B12: F0103464B09 T100E library variant (VHH, name in Kabat numbering)
VHH: EVQLVESGGGLVQPGGSLRLSCATTSRAFIRDVFTGWYRRVPGKERELVARIYNGGNTNYADFAKGRFSISRDNAKKMVTLRMSNLKPEDTGVYYCLFSGTINEGREYRSGDYWGQGTLVTVSS
For the molecule B12, the values for the Mean MFI in experiment [17] and in experiment [18] were 973 MFI and 518 MFI, respectively.

B13: F0103464B09 N99W library variant (VHH, name in Kabat numbering)
VHH: EVQLVESGGGLVQPGGSLRLSCATTSRAFIRDVFTGWYRRVPGKERELVARIYNGGNTNYADFAKGRFSISRDNAKKMVTLRMSNLKPEDTGVYYCLFSGTIWTGREYRSGDYWGQGTLVTVSS
For the molecule B13, the Mean MFI in [19] came out at 3320 MFI; in [20], 530 MFI.

B14: F0103464B09 T100R library variant (VHH, name in Kabat numbering)
VHH: EVQLVESGGGLVQPGGSLRLSCATTSRAFIRDVFTGWYRRVPGKERELVARIYNGGNTNYADFAKGRFSISRDNAKKMVTLRMSNLKPEDTGVYYCLFSGTINRGREYRSGDYWGQGTLVTVSS
Consider B14, for which the Mean MFI in experiment [21] was determined as 626 MFI.

B15: F010300702 (bispecific antibody, V domains shown, not shown: small tags and cut ends)
VH: EVQLVESGGGLVQPGGSLRLSCAASGSIFNINSMAWYRRAPGKQRELVASSTNGGSTNYADSVKGRFTISRDNAKRVYLQMNSLTPEDTAVYYCRALLQPSIYDISRTYWGQGTLVTVSS
Consider B15, for which the MFI in experiment [22] was 15400 MFI; in [23] it was 946 MFI; in experiment [24], 721 MFI; in experiment [25], 653 MFI; in [26], 1570 MFI; in experiment [27], 662 MFI. Besides, the MFI was 5170 MFI in experiment [28], 4120 MFI in experiment [29] and 684 MFI in [30].
